The text below walks through data of paper PMC13071878, “Yeast Display Technology Enables Rapid Discovery of Low-Nanomolar Macrocyclic Peptide Inhibitors of Human Angiotensin-Converting Enzyme 2” (Journal of Medicinal Chemistry, 2026).

In assay [1] the target is human angiotensin-converting enzyme 1 (hACE1) (human) (UniProt P12821). The experiment in a line: enzyme inhibition assay.
For assay [2], the target named is extracellular catalytic domain of human angiotensin-converting enzyme 2 (hACE2), produced in mammalian cells (human) (UniProt Q9BYF1). As to the kind of experiment: enzyme inhibition assay.

Bounds are passed on as bounds.

Sequence of human angiotensin-converting enzyme 1 (hACE1) (human) (P12821 30-1256): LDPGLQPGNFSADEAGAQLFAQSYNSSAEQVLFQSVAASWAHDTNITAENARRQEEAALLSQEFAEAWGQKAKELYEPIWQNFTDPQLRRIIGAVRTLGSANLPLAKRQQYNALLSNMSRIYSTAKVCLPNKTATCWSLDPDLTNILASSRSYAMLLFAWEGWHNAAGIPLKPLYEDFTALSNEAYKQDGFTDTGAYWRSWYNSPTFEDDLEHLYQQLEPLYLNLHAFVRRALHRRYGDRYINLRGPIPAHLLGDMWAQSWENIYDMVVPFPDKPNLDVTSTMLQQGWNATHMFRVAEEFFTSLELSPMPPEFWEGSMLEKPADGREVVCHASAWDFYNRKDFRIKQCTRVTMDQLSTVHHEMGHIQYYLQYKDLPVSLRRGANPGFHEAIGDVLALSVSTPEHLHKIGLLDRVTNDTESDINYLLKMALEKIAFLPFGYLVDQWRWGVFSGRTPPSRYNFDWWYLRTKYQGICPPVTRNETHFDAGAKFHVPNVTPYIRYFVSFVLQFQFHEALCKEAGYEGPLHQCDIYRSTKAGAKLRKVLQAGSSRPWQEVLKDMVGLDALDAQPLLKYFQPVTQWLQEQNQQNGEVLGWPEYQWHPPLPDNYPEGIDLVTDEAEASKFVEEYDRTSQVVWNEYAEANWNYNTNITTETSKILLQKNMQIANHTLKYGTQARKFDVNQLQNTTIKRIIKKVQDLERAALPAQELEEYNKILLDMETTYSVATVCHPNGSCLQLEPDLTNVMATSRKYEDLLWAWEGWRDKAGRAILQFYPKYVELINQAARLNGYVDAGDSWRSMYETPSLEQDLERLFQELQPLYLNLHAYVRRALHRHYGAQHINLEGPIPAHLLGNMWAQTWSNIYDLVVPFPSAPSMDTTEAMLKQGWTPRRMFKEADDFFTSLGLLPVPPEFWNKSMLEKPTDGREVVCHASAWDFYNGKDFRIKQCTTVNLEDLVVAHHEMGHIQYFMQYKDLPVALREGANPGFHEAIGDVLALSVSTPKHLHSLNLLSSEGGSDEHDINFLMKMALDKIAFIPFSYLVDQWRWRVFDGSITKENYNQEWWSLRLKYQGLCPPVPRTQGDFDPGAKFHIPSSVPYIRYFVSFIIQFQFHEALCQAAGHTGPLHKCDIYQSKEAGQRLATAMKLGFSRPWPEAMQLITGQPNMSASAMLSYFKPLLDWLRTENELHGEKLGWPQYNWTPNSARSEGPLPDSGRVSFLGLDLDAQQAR
Sequence of extracellular catalytic domain of human angiotensin-converting enzyme 2 (hACE2), produced in mammalian cells (human) (Q9BYF1 19-615): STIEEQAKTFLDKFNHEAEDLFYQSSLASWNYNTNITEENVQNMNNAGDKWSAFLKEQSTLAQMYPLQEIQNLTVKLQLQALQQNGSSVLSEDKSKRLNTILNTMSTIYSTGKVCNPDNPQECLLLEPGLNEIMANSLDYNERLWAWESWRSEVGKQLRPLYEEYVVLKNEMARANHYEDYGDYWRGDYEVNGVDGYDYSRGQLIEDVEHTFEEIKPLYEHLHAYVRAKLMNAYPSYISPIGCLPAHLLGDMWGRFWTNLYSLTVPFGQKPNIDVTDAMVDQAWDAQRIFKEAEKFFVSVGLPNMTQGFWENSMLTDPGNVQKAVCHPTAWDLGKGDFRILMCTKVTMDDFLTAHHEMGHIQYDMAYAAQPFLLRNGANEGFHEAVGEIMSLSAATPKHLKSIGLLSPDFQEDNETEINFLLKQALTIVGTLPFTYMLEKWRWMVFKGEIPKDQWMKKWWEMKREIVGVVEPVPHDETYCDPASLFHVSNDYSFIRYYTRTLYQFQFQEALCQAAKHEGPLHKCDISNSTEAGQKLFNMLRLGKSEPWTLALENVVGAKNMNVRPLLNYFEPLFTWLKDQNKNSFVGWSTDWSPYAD

In assay [1], “A0773, commercially available inhibitor (peptide)” showed an IC50 of 212 nM and a Ki of 53 nM. In assay [2], the half-inhibitory concentration (IC50) is above 30000 nM and the Ki is above 30000 nM.

One may read the IC50 as the concentration at which inhibition is half-maximal. High values mean weaker potency in that assay, low ones greater potency in that assay. What is called Ki is a dissociation constant, usually derived from enzyme kinetics or from competition with a known ligand. The low end stands for a stronger hold on the target, the high end for a looser hold on the target.
